In patent US20020099179A1:

Target: human CD4 antigen (human) (UniProt P01730)
Assay: competition with F1-OKT4A tracer on HPB-ALL cells, flow cytometry

Row | Substance | Log conc. competitor (pM) at 50% inhibition
1 | murine OKT4A (antibody) | 2.4 log pM
2 | chimeric OKT4A (chimeric light chain and chimeric heavy chain) (antibody) | 2.9 log pM
